Measurements from paper PMC5388898 (Biomacromolecules, 2017).

Target: epidermal growth factor receptor (EGFR) on A431 cells (Homo sapiens, endogenous on A431 cells, UniProt P00533)
Experiment: flow cytometry on cells

B1: Fc5^FL-ELP^DB (VHH)
VHH: EVQLQASGGGLVQAGGSLRLSCAASGFKITHYTMGWFRQAPGKEREFVSRITWGGDNTFYSNSVKGRFTISRDNAKNTVYLQMNSLKPEDTADYYCAAGSTSTATPLRVDYWGKGTQVTVSS
  binding result: no binding (tested: 1 μM)
